Assay results taken from the supplement of paper PMC10065799, “High-throughput profiling of sequence recognition by tyrosine kinases and SH2 domains using bacterial peptide display” (eLife, 2023).

Columns and labels:
c-Abl (mouse) = experiment: phosphorylation enrichment, bacterial display (enrichment ratio); higher = better substrate or ligand; peptides without Tyr show the background
FGFR3 = FGFR3 (UniProt P22607); experiment: as above
Fyn = Fyn (UniProt P06241); experiment: as above
Fes = Fes (UniProt P07332); experiment: as above
Sequence of Fes (P07332 whole entry, looked up): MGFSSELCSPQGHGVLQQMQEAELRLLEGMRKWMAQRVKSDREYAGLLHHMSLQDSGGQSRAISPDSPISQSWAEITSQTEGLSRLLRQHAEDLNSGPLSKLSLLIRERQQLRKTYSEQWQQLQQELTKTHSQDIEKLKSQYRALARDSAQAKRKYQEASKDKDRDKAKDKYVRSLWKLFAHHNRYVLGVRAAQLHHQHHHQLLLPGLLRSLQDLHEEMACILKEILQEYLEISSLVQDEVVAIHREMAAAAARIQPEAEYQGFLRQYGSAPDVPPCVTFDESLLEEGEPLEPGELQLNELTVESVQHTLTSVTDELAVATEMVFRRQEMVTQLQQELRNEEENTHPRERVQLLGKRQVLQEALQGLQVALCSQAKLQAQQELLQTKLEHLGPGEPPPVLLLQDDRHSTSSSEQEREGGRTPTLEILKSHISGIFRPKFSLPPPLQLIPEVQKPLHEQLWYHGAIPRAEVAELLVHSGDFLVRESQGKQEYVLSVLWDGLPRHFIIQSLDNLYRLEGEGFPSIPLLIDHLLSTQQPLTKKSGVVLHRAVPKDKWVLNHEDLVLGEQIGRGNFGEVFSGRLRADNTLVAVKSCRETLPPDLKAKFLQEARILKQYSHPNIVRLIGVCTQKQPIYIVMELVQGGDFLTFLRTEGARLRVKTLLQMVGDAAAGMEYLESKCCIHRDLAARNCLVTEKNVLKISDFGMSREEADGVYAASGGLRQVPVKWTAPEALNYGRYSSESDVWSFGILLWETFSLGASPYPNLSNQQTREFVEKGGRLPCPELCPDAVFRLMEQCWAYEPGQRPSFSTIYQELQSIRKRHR

Fer (mouse) = experiment: as above
FGFR1 = FGFR1 (UniProt P11362); experiment: as above
Sequence of FGFR1 (P11362 whole entry, looked up): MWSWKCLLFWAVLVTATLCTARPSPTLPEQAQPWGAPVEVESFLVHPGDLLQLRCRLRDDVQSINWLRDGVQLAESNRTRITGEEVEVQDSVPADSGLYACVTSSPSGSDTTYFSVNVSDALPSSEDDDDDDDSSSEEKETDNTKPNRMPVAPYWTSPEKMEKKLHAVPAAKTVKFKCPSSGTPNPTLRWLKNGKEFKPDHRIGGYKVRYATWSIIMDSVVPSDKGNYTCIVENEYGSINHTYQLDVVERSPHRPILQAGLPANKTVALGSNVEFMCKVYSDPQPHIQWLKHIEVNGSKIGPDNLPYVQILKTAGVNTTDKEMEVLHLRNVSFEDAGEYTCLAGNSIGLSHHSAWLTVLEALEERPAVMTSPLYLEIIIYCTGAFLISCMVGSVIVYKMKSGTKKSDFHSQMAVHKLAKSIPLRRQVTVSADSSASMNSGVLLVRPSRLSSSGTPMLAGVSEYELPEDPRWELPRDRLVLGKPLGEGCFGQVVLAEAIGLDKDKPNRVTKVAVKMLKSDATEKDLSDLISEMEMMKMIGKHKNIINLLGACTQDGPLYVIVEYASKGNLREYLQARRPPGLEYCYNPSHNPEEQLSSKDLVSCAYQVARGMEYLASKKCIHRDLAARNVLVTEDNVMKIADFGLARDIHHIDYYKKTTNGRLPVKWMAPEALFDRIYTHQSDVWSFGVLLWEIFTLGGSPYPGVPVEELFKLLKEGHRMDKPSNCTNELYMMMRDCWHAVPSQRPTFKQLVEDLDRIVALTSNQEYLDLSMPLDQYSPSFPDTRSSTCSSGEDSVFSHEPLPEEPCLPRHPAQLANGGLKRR

EPHB2 = EPHB2 (UniProt P29323); experiment: as above
Hck = Hck (UniProt P08631); experiment: as above
Sequence of Hck (P08631 whole entry, looked up): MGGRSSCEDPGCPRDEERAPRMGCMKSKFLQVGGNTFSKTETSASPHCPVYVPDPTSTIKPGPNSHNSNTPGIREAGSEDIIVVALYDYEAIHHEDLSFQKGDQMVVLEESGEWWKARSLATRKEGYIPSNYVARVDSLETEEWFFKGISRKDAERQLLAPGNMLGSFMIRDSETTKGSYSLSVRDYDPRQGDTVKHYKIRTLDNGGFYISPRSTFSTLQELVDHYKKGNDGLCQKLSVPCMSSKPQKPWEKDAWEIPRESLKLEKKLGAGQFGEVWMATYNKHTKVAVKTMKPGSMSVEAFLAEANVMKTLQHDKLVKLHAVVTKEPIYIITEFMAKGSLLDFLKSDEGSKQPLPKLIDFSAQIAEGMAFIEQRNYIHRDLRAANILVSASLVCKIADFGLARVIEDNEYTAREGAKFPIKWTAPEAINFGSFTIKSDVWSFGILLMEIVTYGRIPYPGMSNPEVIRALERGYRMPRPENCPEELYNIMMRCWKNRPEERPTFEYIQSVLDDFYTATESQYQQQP

AncSZ = experiment: as above
c-Src = experiment: as above
EPHB1 = EPHB1 (UniProt P54762); experiment: as above
MERTK = MERTK (UniProt Q12866); experiment: as above
Sequence of MERTK (Q12866 whole entry, looked up): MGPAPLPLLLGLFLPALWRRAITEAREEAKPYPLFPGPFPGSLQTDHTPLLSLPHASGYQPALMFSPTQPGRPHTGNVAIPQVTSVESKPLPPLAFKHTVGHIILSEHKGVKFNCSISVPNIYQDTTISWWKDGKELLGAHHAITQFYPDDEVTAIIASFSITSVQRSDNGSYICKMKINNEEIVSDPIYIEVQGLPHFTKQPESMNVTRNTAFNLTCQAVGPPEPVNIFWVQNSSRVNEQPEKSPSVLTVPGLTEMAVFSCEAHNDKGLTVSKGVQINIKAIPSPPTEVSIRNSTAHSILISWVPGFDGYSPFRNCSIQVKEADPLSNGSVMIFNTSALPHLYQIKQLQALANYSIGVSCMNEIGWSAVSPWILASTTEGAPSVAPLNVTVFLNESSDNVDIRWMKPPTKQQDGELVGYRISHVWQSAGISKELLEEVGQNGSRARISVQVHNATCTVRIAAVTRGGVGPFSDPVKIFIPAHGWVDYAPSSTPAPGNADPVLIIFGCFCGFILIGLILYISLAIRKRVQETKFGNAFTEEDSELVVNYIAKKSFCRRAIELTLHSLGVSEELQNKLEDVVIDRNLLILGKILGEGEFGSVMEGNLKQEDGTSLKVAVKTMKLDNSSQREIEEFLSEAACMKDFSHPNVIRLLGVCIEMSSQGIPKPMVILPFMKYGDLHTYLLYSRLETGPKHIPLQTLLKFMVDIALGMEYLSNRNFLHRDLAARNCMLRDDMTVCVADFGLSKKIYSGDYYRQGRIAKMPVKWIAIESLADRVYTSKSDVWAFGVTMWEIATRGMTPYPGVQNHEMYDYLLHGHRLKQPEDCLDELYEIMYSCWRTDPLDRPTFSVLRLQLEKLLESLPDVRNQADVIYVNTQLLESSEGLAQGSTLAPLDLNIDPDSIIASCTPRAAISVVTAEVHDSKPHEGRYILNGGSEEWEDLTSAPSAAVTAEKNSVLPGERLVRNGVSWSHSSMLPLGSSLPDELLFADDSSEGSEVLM

Jak2 = Jak2 (UniProt O60674); experiment: as above
Sequence of Jak2 (O60674 whole entry, looked up): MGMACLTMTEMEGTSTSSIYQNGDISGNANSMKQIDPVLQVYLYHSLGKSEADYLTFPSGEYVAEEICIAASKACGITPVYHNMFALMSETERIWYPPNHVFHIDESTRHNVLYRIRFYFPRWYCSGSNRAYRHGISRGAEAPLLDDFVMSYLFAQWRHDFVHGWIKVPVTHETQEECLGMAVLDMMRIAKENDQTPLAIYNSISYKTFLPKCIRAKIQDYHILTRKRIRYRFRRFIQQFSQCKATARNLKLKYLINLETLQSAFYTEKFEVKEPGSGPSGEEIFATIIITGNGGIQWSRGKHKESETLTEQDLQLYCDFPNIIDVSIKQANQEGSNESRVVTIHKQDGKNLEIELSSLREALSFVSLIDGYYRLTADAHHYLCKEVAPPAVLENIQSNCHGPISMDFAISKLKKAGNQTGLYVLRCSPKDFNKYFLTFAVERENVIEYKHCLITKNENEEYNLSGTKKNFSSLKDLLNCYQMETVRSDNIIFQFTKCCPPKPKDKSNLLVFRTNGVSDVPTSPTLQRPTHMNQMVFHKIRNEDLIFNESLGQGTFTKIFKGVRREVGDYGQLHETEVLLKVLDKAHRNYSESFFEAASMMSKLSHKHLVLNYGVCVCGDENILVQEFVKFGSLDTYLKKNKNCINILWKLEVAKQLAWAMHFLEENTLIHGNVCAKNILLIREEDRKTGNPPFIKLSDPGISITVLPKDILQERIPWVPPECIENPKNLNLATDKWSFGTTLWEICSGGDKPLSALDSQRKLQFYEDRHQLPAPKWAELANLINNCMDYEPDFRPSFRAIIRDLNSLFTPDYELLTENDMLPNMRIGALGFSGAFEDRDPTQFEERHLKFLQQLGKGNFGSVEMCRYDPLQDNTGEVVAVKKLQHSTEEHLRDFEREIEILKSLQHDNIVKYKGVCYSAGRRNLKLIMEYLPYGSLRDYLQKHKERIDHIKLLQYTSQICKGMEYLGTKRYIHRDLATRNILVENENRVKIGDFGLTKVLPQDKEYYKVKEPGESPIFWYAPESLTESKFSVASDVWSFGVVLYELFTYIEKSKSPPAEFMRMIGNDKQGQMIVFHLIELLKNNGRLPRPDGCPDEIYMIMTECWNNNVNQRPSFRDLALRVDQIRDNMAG

c-Src SH2 = experiment: SH2 binding enrichment of the phosphorylated peptide, bacterial display (enrichment ratio); higher = better substrate or ligand; peptides without Tyr show the background
Grb2 SH2 = Grb2 SH2 (UniProt P62993); experiment: as above
SHP2-C SH2 = experiment: as above
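Wherever SH2 binding enrichment of the phosphorylated peptide, bacterial display is given: peptide library displayed on the E. coli surface as eCPX fusions, selected cells deep-sequenced, score is each peptide's frequency after selection divided by its frequency in the input.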
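Wherever phosphorylation enrichment, bacterial display is given: 11-residue human phosphosite peptides and single-mutation variants displayed on the E. coli surface, counted by deep sequencing, each peptide's frequency after selection divided by its frequency in the unselected input library; frequency after pTyr selection over input frequency; kinase dosed for 20-30% of maximal phosphorylation in three min.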

Sequence of Fyn (P06241 whole entry, looked up): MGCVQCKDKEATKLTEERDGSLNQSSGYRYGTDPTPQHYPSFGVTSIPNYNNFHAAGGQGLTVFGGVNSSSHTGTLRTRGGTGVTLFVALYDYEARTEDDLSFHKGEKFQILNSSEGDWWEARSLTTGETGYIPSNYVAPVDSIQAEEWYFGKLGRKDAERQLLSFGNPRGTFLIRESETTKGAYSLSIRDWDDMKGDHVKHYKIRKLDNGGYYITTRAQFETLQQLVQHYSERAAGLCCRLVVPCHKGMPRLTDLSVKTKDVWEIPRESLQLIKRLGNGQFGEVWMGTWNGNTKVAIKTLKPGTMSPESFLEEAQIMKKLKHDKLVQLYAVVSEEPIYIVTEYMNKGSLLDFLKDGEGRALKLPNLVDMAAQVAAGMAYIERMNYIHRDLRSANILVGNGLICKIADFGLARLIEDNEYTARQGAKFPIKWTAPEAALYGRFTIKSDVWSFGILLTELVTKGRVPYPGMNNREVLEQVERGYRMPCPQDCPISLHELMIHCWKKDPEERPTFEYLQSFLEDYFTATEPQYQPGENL

Sequence | SH2 binding enrichment (c-Src SH2) | SH2 binding enrichment (Grb2 SH2) | SH2 binding enrichment (SHP2-C SH2) | phosphorylation enrichment (c-Abl (mouse)) | phosphorylation enrichment (FGFR3) | phosphorylation enrichment (Fyn) | phosphorylation enrichment (Fes) | phosphorylation enrichment (Fer (mouse)) | phosphorylation enrichment (FGFR1) | phosphorylation enrichment (EPHB2) | phosphorylation enrichment (Hck) | phosphorylation enrichment (AncSZ) | phosphorylation enrichment (c-Src) | phosphorylation enrichment (EPHB1) | phosphorylation enrichment (MERTK) | phosphorylation enrichment (Jak2)
FRPPFYHRNCM [HGD_Y334_YF] | 1 | 0.935 | 0.913 | 0.649 | 0.605 | 0.472 | 1.04 | 0.489 | 0.426 | 0.489 | 0.48 | 0.921 | 0.402 | 0.417 | 0.426 | 0.761
SLNEVYTKNKT [MSH2_Y563_E562V] | 0.456 | 0.722 | 0.581 | 0.437 | 0.444 | 0.411 | 0.727 | 0.328 | 0.446 | 0.411 | 0.38 | 0.641 | 0.431 | 0.375 | 0.423 | 0.514
VPLLEYYRDIF [CDAN1_Y712] | 1.05 | 0.911 | 0.968 | 0.728 | 2.83 | 0.444 | 1.24 | 0.544 | 3.63 | 0.647 | 0.508 | 0.998 | 0.553 | 0.564 | 0.441 | 2.64
VKGGAYNPVTV [MCCC2_Y145_Y146N] | 0.466 | 0.814 | 0.558 | 0.609 | 0.469 | 0.456 | 0.644 | 0.526 | 0.447 | 0.372 | 0.434 | 0.552 | 0.511 | 0.471 | 0.471 | 0.781
QQLQGYVPSNF [FRK_Y99_I100V_YF] | 0.659 | 1.03 | 0.64 | 1.13 | 0.779 | 0.479 | 1.07 | 0.584 | 0.475 | 0.664 | 0.802 | 0.699 | 0.904 | 0.653 | 0.75 | 1.52
SSSAIYDNPDL [DCP1B_Y191_N195D] | 1.94 | 0.667 | 0.621 | 9.33 | 0.651 | 3.81 | 1.07 | 6.58 | 0.519 | 10.9 | 5.17 | 1.29 | 2.7 | 7.52 | 5.29 | 0.914
FLAVGDHKPHI [IDS_Y225_Y225D] | 0.478 | 0.824 | 0.857 | 0.365 | 0.35 | 0.433 | 0.462 | 0.197 | 0.384 | 0.422 | 0.379 | 0.431 | 0.327 | 0.375 | 0.271 | 0.41
ILCTVYAFKTR [GRM3_Y754] | 0.794 | 1.3 | 0.985 | 0.696 | 0.715 | 0.528 | 1.49 | 0.61 | 0.543 | 0.478 | 0.624 | 1.52 | 0.599 | 0.577 | 0.609 | 1.33

The next lines start with results.

SH2 binding enrichment (c-Src SH2) | SH2 binding enrichment (Grb2 SH2) | SH2 binding enrichment (SHP2-C SH2) | Sequence | phosphorylation enrichment (c-Abl (mouse)) | phosphorylation enrichment (FGFR3) | phosphorylation enrichment (Fyn) | phosphorylation enrichment (Fes) | phosphorylation enrichment (Fer (mouse)) | phosphorylation enrichment (FGFR1) | phosphorylation enrichment (EPHB2) | phosphorylation enrichment (Hck) | phosphorylation enrichment (AncSZ) | phosphorylation enrichment (c-Src) | phosphorylation enrichment (EPHB1) | phosphorylation enrichment (MERTK) | phosphorylation enrichment (Jak2)
1.07 | 1.28 | 1.05 | CKRQFYLFKGK [RSPO4_Y112_YF] | 0.497 | 0.591 | 0.431 | 1.01 | 0.403 | 0.446 | 0.546 | 0.4 | 0.863 | 0.377 | 0.385 | 0.489 | 0.745
0.539 | 0.864 | 0.757 | DIDKIYVRTGI [PIK3CA_Y355] | 0.713 | 0.772 | 0.458 | 0.934 | 0.525 | 0.518 | 0.593 | 0.529 | 0.975 | 0.528 | 0.697 | 0.33 | 0.878
0.48 | 0.852 | 0.901 | SECCKYKTDNP [OSMR_Y689_I691T] | 0.587 | 0.655 | 0.375 | 0.752 | 0.387 | 0.51 | 0.413 | 0.452 | 0.66 | 0.443 | 0.472 | 0.492 | 0.725
1.61 | 0.769 | 0.755 | DGTESYHTVSS [PLK1_Y462_L463H] | 0.552 | 0.872 | 0.433 | 0.682 | 0.348 | 0.558 | 0.514 | 0.436 | 0.569 | 0.423 | 0.342 | 0.299 | 0.52
0.444 | 0.718 | 0.861 | SVGVPYEPPEV [TP53_Y220_V217G] | 0.881 | 0.748 | 0.545 | 1.29 | 0.585 | 0.523 | 0.57 | 0.577 | 1.16 | 0.509 | 0.534 | 0.485 | 1.09
0.454 | 0.804 | 0.553 | RVQKRYILDNV [RCN1_Y115_F117L] | 0.384 | 0.327 | 0.372 | 0.463 | 0.337 | 0.326 | 0.234 | 0.366 | 0.494 | 0.409 | 0.176 | 0.367 | 0.487
0.4 | 0.59 | 0.556 | CDDGKYVFVVT [RPS6KA3_Y488_Y483C_YF] | 0.862 | 0.919 | 0.444 | 1.43 | 0.683 | 0.574 | 0.719 | 0.508 | 1.23 | 0.412 | 0.604 | 0.437 | 1.11
0.721 | 0.77 | 0.794 | LKALHYMVQTS [SACS_Y3367] | 0.533 | 0.459 | 0.362 | 0.858 | 0.428 | 0.39 | 0.512 | 0.43 | 0.808 | 0.398 | 0.546 | 0.385 | 0.653
